Laboratory results: the PETadex activity labels (doi:10.1111/febs.16924)

Assays:
PET [1] = experiment: Proxy for plastic degradation [Released monomer concentration (HPLC/LC-MS) (TPA+MHET+BHET)] (µmol TPA-EG / mg enzyme / day); conditions: pH 8
PET [2] = experiment: Proxy for plastic degradation [Released monomer concentration (UHPLC) (TPA+MHET+BHET, as TPA-EG units)] (µmol TPA-EG/mg enzyme/day); conditions: pH 8
pNP-C12 = conditions: pH 8; 30 °C
[3] = substrate: Polyester-polyurethane (Impranil DLN); experiment: Proxy for plastic degradation [Proton (H+) release, phenol red pH-indicator assay]; conditions: 40 °C

Protein | Proxy for plastic degradation (PET [1]) | Proxy for plastic degradation (PET [2]; 50 °C) | Proxy for plastic degradation (PET [1]; part of the chain shown) | Proxy for plastic degradation (PET [2]; 30 °C, part of the chain shown) | Km (pNP-C12) [µM] | kcat (pNP-C12) [s⁻¹] | kcat/Km (pNP-C12) [M⁻¹ s⁻¹] | Proxy for plastic degradation [3] [µM] | Proxy for plastic degradation (PET [2]; 40 °C)
unnamed (protein) MDGVLWRVRTAALMAALLALAAWALVWASPSVEAQSNPYQRGPNPTRSALTADGPFSVATYTVSRLSVSGFGGGVIYYPTGTSLTFGGIAMSPGYTADASSLAWLGRRLASHGFVVLVINTNSRFDYPDSRASQLSAALNYLRTSSPSAVRARLDANRLAVAGHSMGGGGTLRIAEQNPSLKAAVPLTPWHTDKTFNTSVPVLIVGAEADTVAPVSQHAIPFYQNLPSTTPKVYVELDNASHFAPNSNNAAISVYTISWMKLWVDNDTRYRQFLCNVNDPALSDFRTNNRHCQ | 12.8 | 12.8 | – | – | – | – | – | – | –
unnamed (protein) MNFPRASRLMQAAVLGGLMAVSAAATAQTNPYARGPNPTAASLEASAGPFTVRSFTVSRPSGYGAGTVYYPTNAGGTVGAIAIVPGYTARQSSIKWWGPRLASHGFVVITIDTNSTLDQPSSRSSQQMAALRQVASLNGTSSSPIYGKVDTARMGVMGWSMGGGGSLISAANNPSLKAAAPQAPWDSSTNFSSVTVPTLIFACENDSIAPVNSSALPIYDSMSRNAKQFLEINGGSHSCANSGNSNQALIGKKGVAWMKRFMDNDTRYSTFACENPNSTRVSDFRTANCS | – | – | 4.33 | 4.33 | – | – | – | – | –
unnamed (protein) MAENPYERGPAPTTSSIEASRGSFATSTVTVSRLAVSGFGGGTIYYPTSTTAGTFGAISIAPGFTALQSSIAWLGPRLASQGFVVFTIDTLTTSDQPDSRGRQLLAALDYLTQQSSVRSRIDSSRLGVVGHSMGGGGTLEAARSRPSLQAAIPLTGWNLTKTWSTVRVPTLVVGAQADTVAPVASHSIPFYNSLPSSLDKAYLELRGASHFAPNSSNTTIAKYTLSWLKRFIDNDTRYEQFLCPIPSTSLSISDYRGNCPHNG | 0.17 | – | – | – | 730 | 8.26 | 11300 | 790 | 0.17
